The record followed here is PMC5863373, “Characterization of association of human mitochondrial lysyl-tRNA synthetase with HIV-1 Pol and tRNA3^Lys” (BMC Biochemistry, 2018).

For experiment [1], the target named is T1, human mitochondrial lysyl-tRNA synthetase with a C-terminal HA-tag (human, UniProt Q15046-2).
T1 construct: also called mLysRS; mLysRS-HA; source: E. coli, purified as described [12]
As to the kind of experiment: AlphaScreen or HTRF. Particulars: both partners purified. On the technique in general: Bead proximity is the source of the signal in Alpha formats.

The target in experiment [2] is T2, HIV-1 integrase with a C-terminal His6 tag (HIV-1 (pNL4-3)).
T2 construct: source: High Five insect cells (baculovirus), purified (Ni-NTA, Mono S); not shown: His6, C-terminal, kept
As to the kind of experiment: AlphaScreen or HTRF. Particulars: both partners purified.

B1: p38, scaffold protein of the multi-synthetase complex (AIMP2), His-tagged (natural protein, human, UniProt Q13155 1-320, looked up)
chain: MPMYQVKPYHGGGAPLRVELPTCMYRLPNVHGRSYGPAPGAGHVQEESNLSLQALESRQDDILKRLYELKAAVDGLSKMIQTPDADLDVTNIIQADEPTTLTTNALDLNSVLGKDYGALKDIVINANPASPPLSLLVLHRLLCEHFRVLSTVHTHSSVKSVPENLLKCFGEQNKKQPRQDYQLGFTLIWKNVPKTQMKFSIQTMCPIEGEGNIARFLFSLFGQKHNAVNATLIDSWVDIAIFQLKEGSSKEKAAVFRSMNSALGKSPWLAGNELTVADVVLWSVLQQIGGCSVTVPANVQRWMRSCENLAPFNTALKLLK
notes: also called His-tagged p38
As for B1, the Kd (as a rule, the constant that tells how readily two partners part at equilibrium) in experiment [1] came to 0.5 nM.

B2: mLysRS derivative with a C-terminal deletion of 22 aminoacid residues, with a C-terminal HA-tag (domain or fragment)
chain: not shown
Turning to B2, the Kd in experiment [2] was 8.3 nM.
